Measurements as given in patent US20230272055A1 (Incyte, published 2023).

B1: anti-mutCALR antibody clone 4 (antibody, human IgG1, lambda, V domains shown)
VH: EVQLVQSGAEVKKPGASVKVSCKVSGYTLTELSMQWVRQAPGKGLEWMGGFDPDDGETMYAEKFQGRLTVTEDTSTDTVYMELRSLTSEDTALYFCATSPGYDFFDYWGQGTLVTVSS
VL: SYVLTQPPSVSVAPGQTARITCGGNNIGSKSVHWYQQKPGQAPVLVVYDDSDRPSGIPERFSGSNSGNTATLTINRVEAGDEADYYCQVWDSSNDLLIFGGGTKLTVLG
B2: anti-mutCALR antibody clone 8 (antibody, human IgG1, lambda, V domains shown)
VH: QVQLVQSGAEVKKPGSSVKVSCKVSGYTLTELSMQWVRQAPGKGLEWMGGFDPDDGETMYAEKFQGRLTVTEDTSTDTVYMELRSLTSEDTALYFCATSPGYDFFDYWGQGTLVTVSS
VL: SYELTQPPSVSVAPGQTARITCGGNNIGSKSVHWYQQKPGQAPVLVVYDDSDRPSGIPERFSGSNSGRTATLTISRVEAGDEADYHCQVWDSSSDHLVFGGGTKLTVLG
notes: human IgG1; group 1
B3: anti-mutCALR antibody clone 16 (antibody, human IgG1, lambda, V domains shown)
VH: EVQLVQSGAEVKKPGASVKVSCKVSGYTLTELSMQWVRQAPGKGLEWMGGFDPDDGETMYAEKFQGRLTVTEDTSTDTVYMELRSLTSEDTALYFCATSPGYDFFDYWGQGTLVTVSS
VL: SYVLTQPPSVSVAPGKTARITCGGNNTGSKSVHWYQQKPGQAPVLVVYDDSDRPSGIPERFSGSNSGNTATLTINRVEAGDEADYYCQVWDSSNDLLIFGGGTKLTVLG
notes: human IgG1; group 1
B4: anti-mutCALR antibody clone 7 (antibody, human IgG1, lambda, V domains shown)
VH: EVQLVQSGAEVKKPGASVKVSCKVSGYTLTELSMQWVRQAPGKGLEWMGGFDPDDGETMYAEKFQGRLTVTEDTSTDTVYMELRSLTSEDTALYFCATSPGYDFFDYWGQGTLVTVSS
VL: SYVLTQPPSVSVAPGQTASITCVGTNFGSKNVHWYQQRPGQAPVLVVYDDSDRPSGIPERFSGSNSGNTATLTINRVEAGDEADYYCQVWDSSNDLLIFGGGTKLTVLG
notes: human IgG1; group 1
B5: anti-mutCALR antibody clone 10 (antibody, human IgG1, lambda, V domains shown)
VH: EVQLVQSGAEVKKPGASVKVSCKVSGYTLTELSMQWVRQAPGKGLEWMGGFDPDDGETMYAEKFQGRLTVTEDTSTDTVYMELRSLTSEDTALYFCATSPGYDFFDYWGQGTLVTVSS
VL: SYELTQPPSVSVAPGQTARIPCGGNNIGSEGVHWYQQKPGQAPVLVVYDDSDRPSGIPERFSGSNSGNTATLTISRVEAGDEADYYCQVWDSSNDLLIFGGGTKLTVLG
notes: human IgG1; group 1
B6: anti-mutCALR antibody clone 3 (antibody, human IgG1, lambda, V domains shown)
VH: EVQLVQSGAEVKKPGASVKVSCKVSGYTLTELSMQWVRQAPGKGLEWMGGFDPDDGETMYAERFQGRLTVTEDTSTDTVYMELRSLTSEDTALYFCATSPGYDFFDYWGQGTLVTVSS
VL: SYVLTQPPSVSVAPGQTARITCGGNNIGSKSVHWYQQKPGQAPVLVVYDDSDRPSGIPERFSGSNSGNTATLTINRVEAGDEADYYCQVWDSSNDLLIFGGGTKLTVLG
notes: human IgG1; group 1
B7: anti-mutCALR antibody clone 12 (antibody, human IgG1, lambda, V domains shown)
VH: EVQLVQSGAEVKKPGASVKVSCKVSGYTLTELSMQWVRQAPGKGLEWMGGFDPDGGETMYAEKFQGRLTVTEDTSTDTVYMELRSLTSEDTALYFCATSPGYDFFDYWGQGTLVTVSS
VL: SYVLTQPPSVSVAPGQTARVSCGGNNIGSKSVNWYRQKPGQAPVLVIYDDSDRPSGIPERFSGSNSGNTATLTINRVEAGDEADYYCQVWDSSNDLLIFGGGTKLTVLG
notes: human IgG1; group 1
B8: anti-mutCALR antibody clone 15 (antibody, human IgG1, lambda)
heavy: not shown
light: SYELTQPPSVSVAPGKTARITCGGDNIGSKSVHWYQQKPGQAPVLVVYDDSDRPSGIPERFSGSNSGNTATLTINRVEAGDEADYYCQVWDSSNDLLIFGGGTKLTVLGQPKAAPSVTLFPPSSEELQANKATLVCLISDFYPGAVTVAWKADSSPVKAGVETTTPSKQSNNKYAASSYLSLTPEQWKSHRSYSCQVTHEGSTVEKTVAPTECS
notes: human IgG1; group 1
B9: anti-mutCALR antibody clone 5 (antibody, human IgG1, lambda, V domains shown)
VH: EVQLVQSGAEVKKPGASVKVSCKVSGYTLTELSMQWVRQAPGKGLEWMGGFDPDDGETMYAEKFQGRLTVTEDTSTDTVYMELRSLTSEDTALYFCATSPGYDFFDYWGQGTLVTVSS
VL: SYVLTQPPSVSVAPGQTASITCVGTNFGSKNVHWYQQRPGQAPVLVVYDDSDRPSGIPERFSGSNSGNTATLTISRVEAGDEADYYCQVWDSSSDHLIFGGGTKLTVLG
notes: human IgG1; group 1
B10: anti-mutCALR antibody clone 18 (antibody, human IgG1, lambda, V domains shown)
VH: EVQLVQSGAEVKKPGASVKVSCKVSGYTLTELSMQWVRQAPGKGLEWMGGFDPDDGETMYAEKFQGRLTVTEDTSTDTVYMELRSLTSEDTALYFCATSPGYDFFDYWGQGTLVTVSS
VL: SYVLTQPPSVSVAPGKTARITCGGNNIGSKSVHWYQQKPGQAPVLVVYDDSDRPLGIPERFSGSNSGNTATLTINRVEAGDEADYYCQVWDSSNDLLIFGGGTKLTVLG
notes: human IgG1; group 1
B11: anti-mutCALR antibody clone 17 (antibody, human IgG1, lambda)
heavy: not shown
light: SYVLTQPPSVSVAPGQTARITCGGSDIGDEIVHWYQQKPGQAPVLVVYDDSDRPSGIPERFSGSNSGNTATLTISRAQAGDEADYYCQVWDSSSDHLIFGGGTKLTVLGQPKAAPSVTLFPPSSEELQANKATLVCLISDFYPGAVTVAWKADSSPVKAGVETTTPSKQSNNKYAASSYLSLTPEQWKSHRSYSCQVTHEGSTVEKTVAPTECS
notes: human IgG1; group 1
B12: anti-mutCALR antibody clone 1 (antibody, human IgG1, lambda, V domains shown)
VH: EVQLVQSGAEVKKPGASVKVSCKVSGYTLTELSMQWVRQAPGKGLEWMGGFDPDDGETMYAEKFQGRLTVTEDTSTDTVYMELRSLTSEDTALYFCATSPGYDFFDYWGQGTLVTVSS
VL: SYVLTQPPSVSVAPGKTARITCGGNYIGSKSVHWYQQKPGQAPVLVVYDDGDRPSGIPARFSGSNSGNTATLTISRVEAGDEADYYCQVWDSISDHVVFGGGTKLTVLG
notes: human IgG1; group 1
B13: anti-mutCALR antibody clone 2 (antibody, human IgG1, lambda, V domains shown)
VH: EVQLVQSGAEVKKPGASVKVSCKVSGYTLTELSMQWVRQAPGKGLEWMGGFDPDDGETMYAEKFQGRLTVTEDTSTDTVYMELRSLTSEDTALYFCATSPGYDFFDYWGQGTLVTVSS
VL: SYELTQPPSVSVAPGKTARITCGGDNIGSKSVHWYQQKPGQAPVLVVYDDSDRPSGIPERFSGSNSGNTATLTISRVEAGDEADYYCQVWDSSIDHLIFGGGTKVTVLG
notes: human IgG1; group 1
B14: anti-mutCALR antibody clone 9 (antibody, human IgG1, lambda, V domains shown)
VH: EVQLVQSGAEVKKPGASVKVSCKVSGYTLTELSMQWVRQAPGKGLEWMGGFDPDDGETMYAEKFQGRLTVTEDTSTDTVYMELRSLTSEDTALYFCATSPGYDFFDYWGQGTLVTVSS
VL: SYVLTQPPSVSVAPGQTARIPCGGNNIGSKSVHWYQQKPGQAPVLVVYDDRDRPSGIPERFSGSNSGNTATLTINRVEAGDEADYYCQVWDSSNDLLIFGGGTKLTVLG
notes: human IgG1; group 1
B15: anti-mutCALR antibody clone 13 (antibody, human IgG1, lambda, V domains shown)
VH: QVQLVQSGAEVKKPGASVKVSCKVSGYTLTELSMQWVRQAPGKGLEWMGGFDPDDGETMYAEKFQGRLTVTEDTSTDTVYMELRSLTSEDTALYFCATSPGYDFFDYWGQGTLVTVSS
VL: not shown
notes: human IgG1; group 1

Target: MBP protein (UniProt P0AEX9 27-392 = MBP)
Assay: SPR (Biacore 8K), antibody captured on anti-human IgG (Fc), MBP injected
Method: Experiment 1: Recombinant MBP-mutCALR Type 1 fusion protein was custom made at Cepter (cepterbiopartners.com). Data for the interaction of antibodies with recombinant MBP-mutCALR Type 1 fusion protein were collected at 25° C. on a Biacore 8K instrument (Cytiva, Marlborough, Mass.), and all reagents were obtained from Cytiva unless otherwise specified. The experiments were conducted using Tris-buffered saline (pH 7.2), 0.005% Surfactant P20, 1 mM CaCl₂) as running buffer. To prepare the capture surfaces, anti-human IgG (Fc) antibodies (Product #29234600) was amine-coupled onto a CM4 chip (Product #BR100534) under standard conditions using an Amine Coupling Kit (Product #BR100050). […] The kinetics parameters were obtained by applying 1:1 binding model to fit the data from multiple-cycle injection experiments using Biacore Insight Evaluation software.

Row | Binder | binding result
1 | B1 | no binding (tested: 250 nM)
2 | B2 | no binding (tested: 250 nM)
3 | B3 | no binding (tested: 250 nM)
4 | B4 | no binding (tested: 250 nM)
5 | B5 | no binding (tested: 250 nM)
6 | B6 | no binding (tested: 250 nM)
7 | B7 | no binding (tested: 250 nM)
8 | B8 | no binding (tested: 250 nM)
9 | B9 | no binding (tested: 250 nM)
10 | B10 | no binding (tested: 250 nM)
11 | B11 | no binding (tested: 250 nM)
12 | B12 | no binding (tested: 250 nM)
13 | B13 | no binding (tested: 250 nM)
14 | B14 | no binding (tested: 250 nM)
15 | B15 | no binding (tested: 250 nM)
